In US20140011207, “PSA BINDING APTAMER AND METHOD FOR DIAGNOSIS OF PROSTATE CANCER” (National University Corporation Tokyo University of …, published 2014):

Legend:
[1] = biological target: T1, Prostate-specific antigen (PSA, KLK3) (Homo sapiens, UniProt P07288 P07288:25-261); experiment: ELONA; rank 4 of 1st generation; conditions: tags: purified from human semen; Sigma-Aldrich and Scipac; label: 5'-FITC
Procedure: (§1) 100 μL amounts of PSA in PBS buffer (pH 7.4), at final concentration of 5 μg/mL, were added to a 96-well polystyrene plate. After 2 h incubation with gentle shaking at 37° C., the supernatant was removed and each well was washed with TBST buffer. Each well was filled with 100 μl of five-fold-diluted blocking reagent N102 and incubated with gentle shaking for 1 h at room temperature, and then washed three times. FITC-labeled aptamer was heat treated in TBS buffer as described above for folding. To each well 100 μL amounts of the FITC-labeled aptamer in TBST buffer (5 μM) were added and incubated for 1 h at room temperature. […] Each well was washed five times and BM chemiluminescence HRP substrate was added, then the HRP activity was measured by a multi label plate counter: Wallac 1420 ARVO MX (Perkin Elmer).
(§2) In order to carry out a post-SELEX screening of aptamers using GA with candidates, the five sequences pre-selected through SELEX were used as “parents” to produce a set of 20 oligonucleotide sequences using GA. These oligonucleotides were synthesized and the PSA-binding ability was evaluated by plate assay. The PSA-binding ability was measured by detection chemiluminescence from HRP-conjugated anti-FITC antibody that represented the binding of oligonucleotides against PSA immobilized on a well of polystyrene plate (n=2). […]

[2] = biological target: T1, Prostate-specific antigen (PSA, KLK3); experiment: ELONA; conditions: tags: purified from human semen; Sigma-Aldrich and Scipac; label: 5'-FITC
Procedure: 100 μL amounts of PSA in PBS buffer (pH 7.4), at final concentration of 5 μg/mL, were added to a 96-well polystyrene plate. After 2 h incubation with gentle shaking at 37° C., the supernatant was removed and each well was washed with TBST buffer. Each well was filled with 100 μl of five-fold-diluted blocking reagent N102 and incubated with gentle shaking for 1 h at room temperature, and then washed three times. FITC-labeled aptamer was heat treated in TBS buffer as described above for folding. To each well 100 μL amounts of the FITC-labeled aptamer in TBST buffer (5 μM) were added and incubated for 1 h at room temperature. After washing three times, HRP-conjugated anti-FITC antibody was added to each well and incubated with gentle shaking for 1 h at room temperature. Each well was washed five times and BM chemiluminescence HRP substrate was added, then the HRP activity was measured by a multi label plate counter: Wallac 1420 ARVO MX (Perkin Elmer).
In order to carry out a post-SELEX screening of aptamers using GA with candidates, the five sequences pre-selected through SELEX were used as “parents” to produce a set of 20 oligonucleotide sequences using GA. These oligonucleotides were synthesized and the PSA-binding ability was evaluated by plate assay. The PSA-binding ability was measured by detection chemiluminescence from HRP-conjugated anti-FITC antibody that represented the binding of oligonucleotides against PSA immobilized on a well of polystyrene plate (n=2). The signal intensity was normalized with that of the top oligonucleotide in the 1st-generation. Then, the oligonucleotides were ranked according to PSA-binding ability, and top four ranked sequences were chosen to produce a next set of oligonucleotide sequences. The cycle of oligonucleotide synthesis, plate assay and evolution of the oligonucleotide sequences using GA was repeated three times, with one cycle corresponding to one generation when we assume this process to be the in silico evolution of the PSA-binding aptamer. After one cycle of GA operations, four 2nd-generation sequences, SEQ ID: Nos. 8 to 11, were obtained.

[3] = biological target: T1, Prostate-specific antigen (PSA, KLK3); experiment: ELONA; rank 2 of 1st generation; conditions: tags: purified from human semen; Sigma-Aldrich and Scipac; label: 5'-FITC
Procedure: as §1, §2

[4] = biological target: T1, Prostate-specific antigen (PSA, KLK3); experiment: ELONA; rank 7 of 1st generation; conditions: tags: purified from human semen; Sigma-Aldrich and Scipac; label: 5'-FITC
Procedure: as §1, §2

[5] = biological target: T1, Prostate-specific antigen (PSA, KLK3); experiment: ELONA; rank 6 of 1st generation; conditions: tags: purified from human semen; Sigma-Aldrich and Scipac; label: 5'-FITC
Procedure: as §1, §2

[6] = biological target: T1, Prostate-specific antigen (PSA, KLK3); experiment: ELONA; rank 1 of 1st generation; 1st generation up to 10-fold higher than parents; conditions: tags: purified from human semen; Sigma-Aldrich and Scipac; label: 5'-FITC
Procedure: as §1, §2

[7] = biological target: T1, Prostate-specific antigen (PSA, KLK3); experiment: ELONA; rank 3 of 1st generation; conditions: tags: purified from human semen; Sigma-Aldrich and Scipac; label: 5'-FITC
Procedure: as §1, §2

[8] = biological target: T1, Prostate-specific antigen (PSA, KLK3); experiment: ELONA; rank 5 of 1st generation; conditions: tags: purified from human semen; Sigma-Aldrich and Scipac; label: 5'-FITC
Procedure: as §1, §2

[9] = biological target: T1, Prostate-specific antigen (PSA, KLK3); experiment: ELONA; PSA immobilized on polystyrene plate; TBST with 5 mM KCl, 5 mM MgCl2, pH 7.4, room temp; conditions: tags: purified from human semen; Sigma-Aldrich and Scipac; label: 5'-FITC; predicted stem-loop
Procedure: as §1
Plate assay for detection of PSA was performed as described above with the following modifications. […] After incubation with HRP-conjugated anti-FITC antibody, chemiluminescence from HRP was measured.
Plate assay was performed to measure PSA concentrations with ΔPSap4#5 selected using GA as the top oligonucleotide of the 4th-generation. […] Then, the PSA concentration was measured by detecting chemiluminescence from HRP-conjugated anti-FITC antibody that represented the binding of FITC-labeled ΔPSap4#5 against PSA immobilized on a well of polystyrene plate (n=2). […]

T1 sequence (P07288 25-261, one chain of several): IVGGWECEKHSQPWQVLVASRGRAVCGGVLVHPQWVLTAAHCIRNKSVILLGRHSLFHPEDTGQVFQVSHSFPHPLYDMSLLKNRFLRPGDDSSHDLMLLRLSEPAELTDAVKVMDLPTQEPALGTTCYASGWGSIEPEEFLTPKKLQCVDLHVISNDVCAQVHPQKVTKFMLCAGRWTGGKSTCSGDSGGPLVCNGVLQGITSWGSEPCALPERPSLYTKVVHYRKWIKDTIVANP

TTTTTCCTCACCGGGTAACTTCGTGGCCCTTT (ssDNA) [ΔPSap1#5]
binding result [1]: binds

TTTTTAATTAAGGATTTCCCGGTTGTATCTTT (ssDNA) [ΔPSap2#02]
binding signal [2]: 1550 CPS (normalized HRP chemiluminescence)

TTTTTGCCTACTGATTTCCTTTTTGAGCCTTT (ssDNA) [ΔPSap2#01]
binding signal [2]: 1170 CPS (normalized HRP chemiluminescence)

TTTTTACTTAAGGATTTCCTTTTTTAGCCTTT (ssDNA) [ΔPSap1#3]
binding result [3]: binds

TTTTTACTTAATGATTTCACCGGTGGCCCTTT (ssDNA) [ΔPSap1#19]
binding result [4]: binds

TTTTTGCCTAATGATTTCCCGGTTGTCTCTTT (ssDNA) [ΔPSap1#15]
binding result [5]: binds

TTTTTAATATCAACTTGCCATAAAGGGCCTTT (ssDNA) [ΔPSap1#13]
binding result [6]: binds

TTTTTACTGTGAACTCGCCATCAAATATCTTT (ssDNA) [ΔPSap2#16]
binding signal [2]: 1480 CPS (normalized HRP chemiluminescence)

TTTTTAATGTCAACTCGCCATCAAATATCTTT (ssDNA) [ΔPSap1#16]
binding result [7]: binds

TTTTTAATATCACCCTTGTTTACTGTCCCTTT (ssDNA) [ΔPSap1#12]
binding result [8]: binds

TTTTTAATGTCAACGTTGTTTACTGTCCCTTT (ssDNA) [ΔPSap2#18]
binding signal [2]: 1490 CPS (normalized HRP chemiluminescence)

TTTTTAATTAAAGCTCGCCATCAAATAGCTTT (ssDNA) [ΔPSap4#5]
Kd [9]: 54 nM

TTTTTAATTAAGGCTCGCCATCAAAGAGCTTT (ssDNA) [ΔPSap4#14]
binding signal [2]: 2510 CPS (normalized HRP chemiluminescence)

TTTTTAATTCAGGCTCGCCATCAAATAGCTTT (ssDNA) [ΔPSap4#1]
binding signal [2]: 1800 CPS (normalized HRP chemiluminescence)

TTTTTAATTAAGGCTCGCCATCAGATAGCTTT (ssDNA) [ΔPSap4#7]
binding signal [2]: 3260 CPS (normalized HRP chemiluminescence)

TTTTTAATTAAGGCTCGCCATCAAATAACTTT (ssDNA) [ΔPSap4#11]
binding signal [2]: 2150 CPS (normalized HRP chemiluminescence)

TTTTTAATTAAGGCTCGCCATCAAAAAGCTTT (ssDNA) [ΔPSap4#19]
binding signal [2]: 1220 CPS (normalized HRP chemiluminescence)

TTTTTTATTAAGGCTCGCCATCAAATAGCTTT (ssDNA) [ΔPSap4#10]
binding signal [2]: 3300 CPS (normalized HRP chemiluminescence)
